In publication PMC3415446:

Legend:
[1] = target: NDV Ulster HN NA domain (residues 124-616), containing the C-terminal extension (Newcastle disease virus (NDV), strain Ulster); test: SEC
[2] = target: NDV Ulster HN NA domain (residues 124-616), containing the C-terminal extension (Newcastle disease virus (NDV), strain Ulster); test: negative-stain electron microscopy
[3] = target: NDV Ulster HN NA domain (residues 124-616), containing the C-terminal extension (Newcastle disease virus (NDV), strain Ulster); test: SDS-PAGE under non-reducing conditions
[4] = target: NDV Ulster HN NA domain (residues 124-616), containing the C-terminal extension (Newcastle disease virus (NDV), strain Ulster); test: sucrose density gradient sedimentation
[5] = target: NDV Ulster HN ectodomain (residues 49-616) (Newcastle disease virus (NDV), strain Ulster); test: SDS-PAGE under non-reducing conditions
[6] = target: NDV Ulster HN ectodomain (residues 49-616) (Newcastle disease virus (NDV), strain Ulster); test: not stated; ectodomain in solution; method not given

Measured: stoichiometry N

NDV Ulster HN NA domain (residues 124-616), containing the C-terminal extension (domain or fragment)
2: [1] | [2] | [3] | [4]

NDV Ulster HN ectodomain (residues 49-616) (domain or fragment)
2: [5] | [6]
